Assay results published in patent US20090298196A1 (published 2009).
Ends that are not written are not given here.

T1: peptide of sequence no. 1 (GEPGDDAPS, amino acid nos. 757 to 765 of human type 2 collagen) (human, also: biotin-labeled in DELFIA screening, immunogen form had a C-terminal cysteine added)
T1 construct: also called biotin-labeled target antigen peptide
T1 peptide: GEPGDDAPS

T2: peptide of sequence no. 2 (GPPGPQG, amino acid nos. 769 to 775 of human type 2 collagen) (human, also: immunogen form had an N-terminal cysteine added)
T2 peptide: GPPGPQG

B1: 6G4 antibody (monoclonal antibody produced by hybridoma TAG-6G4) (antibody, mouse IgG1, V domains shown)
VH: EVQLVESGGSLVQPGGSLKLSCAASGFTFNNYGMSWVRQIPDKRLELVATITGNGHSTYYPVSVRGRFTISRDNAKNTLYLQMSSLKSEDTAMYYCVRGYSNFAFWGQGTTLTVSS
VL: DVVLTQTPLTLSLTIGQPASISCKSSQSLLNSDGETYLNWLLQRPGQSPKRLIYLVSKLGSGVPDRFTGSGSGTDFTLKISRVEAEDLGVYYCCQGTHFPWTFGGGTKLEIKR
notes: Mouse IgG1(k), 150 kDa, H chain 50 kDa and L chain 27 kDa; It was labeled with europium cryptate for the HTRF assay; also called 6G4 antibodies; cryptate-labeled 6G4 antibodies
B2: 2E6 antibody (monoclonal antibody produced by hybridoma TAG-2E6) (antibody, V domains shown)
VH: QVTLKESGPGILQPSQTLSLTCSFSGFSLSTYGMGVGWIRQPSGKGLEWLAHIWWNDNKYYNTTLKSRLTISKDTSNKQVFLKIASVDTADTATYYCARIERWDPWFAYWGQGTLVTVSA
VL: DVVMTQTPLSLPVSLGDQASISCRSSQSLVYSNGNTYFHWYLQKPGQSPKLLIYKVSNRFSGVPDRFSGSGSGTDFTLKISRVEAEDLGVYFCSQSTHVPLTFGAGTKLELKR
notes: Mouse IgG2b(k), 150 kDa, H chain 50 kDa and L chain 27 kDa; It was labeled with XL665 for the HTRF assay and immobilised on a carrier column for purification; also called 2E6 antibodies; XL665-labeled 2E6 antibodies

What was measured:
[1] = molecular target: T1, peptide of sequence no. 1 (GEPGDDAPS, …); assay: characterisation of the antibody (peptide immunisation and DELFIA screening)
Experimental: (§1) The screening was done using the time-resolved fluorescence immunoassay (DELFIA, Amersham, registered trademark) described below. 50 μl measurement buffer solution (50 mM tris hydrochloric acid buffer solution (pH 7.5) containing 150 mM NaCl, 0.01% Tween80, 0.5% BSA and 0.05% NaN₃), 50 μl culture supernatant and 50 μl labeled antigen (measurement buffer solution containing 20 ng/ml biotin-labeled target antigen peptide and 100 ng/ml europium-labeled streptoavidine (manufactured by Perkin-Elmer Life Science)) were consecutively added to microtiter plates (manufactured by Sumitomo Bakelite) with solidified anti-mouse IgG antibodies (manufactured by Shibayagi), and a reaction was conducted at 4° C. for 16 hours. After washing the plates twice using 200 μl washing solution (150 mM NaCl, 0.02% NaN₃ and 0.01% Tween20), 150 μl enhancement solution (manufactured by Perkin-Elmer Life Science) were added, and the time-resolved fluorescence was measured using 1420ARVOsx Multilabel Counter (manufactured by Perkin-Elmer Life Science). One well with high reactivity was selected by means of this screening, cloning was repeated twice using the limiting dilution method, and the presence of antibody-producing hybridoma TAG-6G4 was established. […]

[2] = molecular target: T2, peptide of sequence no. 2 (GPPGPQG, …); assay: as above
Experimental: as §1

| Binder | binding result [1] | binding result [2] |
| --- | --- | --- |
| B1 | binds |  |
| B2 |  | binds |
